Consider 1 protein from publication PMC9728370, “Multiple Tolerances and Dye Decolorization Ability of a Novel Laccase Identified from Staphylococcus Haemolyticus” (Journal of Microbiology and Biotechnology, 2020).

Substrate in the data set: CCn1c(=NN=c2sc3cc(S(=O)(=O)O)ccc3n2CC)sc2cc(S(=O)(=O)O)ccc21
Kind of data set: purified protein. As to conditions: 100 mM sodium acetate pH 4.5, 30°C, ABTS 50-1,000 μM, 5.21 mg/l enzyme. It is filed as biochemical, Staphylococcus haemolyticus.

B1: Mco (Staphylococcus haemolyticus) (protein)
chain: MYNKVFTILIIIFSIIIIASNDTFAESKNDMMNMKEDKKNTMDMTNMKHHDERKKLNSSQGKNEIIFPEVAESKKDNNGYKNYTLKAQKGKTEFYKNNFSNTLGYNGNLLGPTLKLKKGDKVKIKLINNLDENTTFHWHGLEVNGKVDGGPSQVIKPGKEKTIKFEVNQDSATLWYHPHPSPNTAKQVYNGLSGLLYIEDSKKNNYPSNYGKNDLPIIIQDKTFVSKKLNYSKTKDEDGTQGDTVLVNGIVNPKLTAKEEKIRLRLLNGSNARDLNLKLSNNQSFEYIASDGGQLKNAKKLKEINLAPSERKEIVIDLSKMKGEKVSLVDNDKTVILPISNKEKSSNKSNTPKVSKKIKLEGMNDNVTINGNKFDPNRIDFTQKLNQKEVWEIENVKDKMGGMKHPFHIHGTQFKVLSVDGEKPPKDMRGKKDVISLEPGQKAKIEVVFKNTGTYMFHCHILEHEDNGMMGQIKVTN
notes: expressed in E. coli pG-KJE8/BL21
For B1, the Km turned out to be 139.8 µM and the kcat was 6.87 s⁻¹.

The term Km denotes the substrate concentration at which the rate is half of its maximum. By kcat is commonly meant the maximal rate divided by the concentration of active sites.
